Assay results published in US6998106.

Legend:
[1] = molecular target: EGFRvIII (form used in the assay not stated) (UniProt P00533); assay: surface plasmon resonance
[2] = molecular target: EGFRvIII (form used in the assay not stated) (UniProt P00533); assay: SIPC-labeled scFv; method not stated
[3] = molecular target: EGFRvIII (form used in the assay not stated) (UniProt P00533); assay: SIPC-labeled scFv; immunoreactive fraction, antigen source not stated
[4] = molecular target: EGFRvIII (mutant epidermal growth factor receptor) expressed by the U87MGΔEGFR cell line (UniProt P00533); assay: binding of radiolabeled mAb to U87MGΔEGFR cells (Scatchard analysis per Example 2)
[5] = molecular target: EGFRvIII (mutant epidermal growth factor receptor) expressed by the U87MGΔEGFR cell line (UniProt P00533); assay: binding of labeled mAb to EGFRvIII-positive tumor xenograft homogenate, Lindmo method (per Example 2)

## L8A4 scFv dimer with a 5 amino acid linker between the VL and VH domains
[1]
  Ka: 5.5e+09 M⁻¹

## scFv monomer based on the L8A4 variable region, labeled with SIPC
[2]
  Ka: 1.5e+08 M⁻¹
[3]
  immunoreactive fraction: 65 to 80%

## ^211 At-labeled L8A4 (anti-EGFRvIII mAb L8A4 labeled with N-succinimidyl 5-[^211 At]astato-3-pyridinecarboxylate, SAPC) (antibody)
[4]
  Ka: 9.7e+08 M⁻¹
[5]
  immunoreactive fraction: 69 to 89%
